Test results: US20190194683A1 (WISCONSIN ALUMNI RESEARCH FOUNDATION, published 2019)

T1: α-SNAPRhg1HC (high copy Rhg1 resistance-type α-SNAP, Glyma.18G022500 Fayette) (Glycine max (soybean))
T1 construct: Recombinant protein, His-SUMO tag cleaved off; also called high copy (HC) Rhg1 α-SNAP
T1 chain: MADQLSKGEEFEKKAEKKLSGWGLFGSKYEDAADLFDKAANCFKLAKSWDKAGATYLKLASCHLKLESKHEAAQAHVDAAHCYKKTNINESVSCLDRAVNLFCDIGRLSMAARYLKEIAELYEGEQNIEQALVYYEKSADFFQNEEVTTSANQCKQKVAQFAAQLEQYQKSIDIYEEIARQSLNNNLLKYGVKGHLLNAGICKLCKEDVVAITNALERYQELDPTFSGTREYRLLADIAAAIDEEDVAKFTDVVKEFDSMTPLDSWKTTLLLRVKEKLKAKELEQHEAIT

T2: α-SNAPRhg1WT (wild-type α-SNAP encoded by Glyma.18G022500, Williams 82) (Glycine max (soybean))
T2 construct: also called WT α-SNAP; wild-type (WT) Rhg1 α-SNAP
T2 chain: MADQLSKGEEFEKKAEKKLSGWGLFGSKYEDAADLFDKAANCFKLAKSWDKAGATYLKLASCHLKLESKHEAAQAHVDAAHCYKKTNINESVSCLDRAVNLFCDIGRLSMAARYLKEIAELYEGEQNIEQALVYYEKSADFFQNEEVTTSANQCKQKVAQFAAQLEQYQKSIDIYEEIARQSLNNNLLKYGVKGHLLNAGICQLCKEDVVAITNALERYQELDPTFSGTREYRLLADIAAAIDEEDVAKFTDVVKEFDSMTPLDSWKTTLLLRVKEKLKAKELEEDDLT

T3: α-SNAPRhg1LC (low copy Rhg1 resistance-type α-SNAP, Glyma.18G022500 Peking) (Glycine max (soybean))
T3 construct: Recombinant protein, His-SUMO tag cleaved off; also called low-copy (LC) Rhg1 α-SNAP
T3 chain: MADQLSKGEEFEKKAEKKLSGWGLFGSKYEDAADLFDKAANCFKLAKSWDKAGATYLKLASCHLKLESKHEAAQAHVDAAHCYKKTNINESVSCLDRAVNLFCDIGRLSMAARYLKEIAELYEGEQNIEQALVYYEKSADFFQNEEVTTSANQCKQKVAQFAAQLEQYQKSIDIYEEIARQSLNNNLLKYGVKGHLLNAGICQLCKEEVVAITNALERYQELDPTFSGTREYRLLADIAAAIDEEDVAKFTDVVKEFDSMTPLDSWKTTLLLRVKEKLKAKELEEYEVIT

T4: α-SNAPRhg1WT1-279 (WT α-SNAP lacking the final 10 C-terminal residues) (Glycine max (soybean))
T4 construct: also called α-SNAP lacking the C-terminus
T4 chain: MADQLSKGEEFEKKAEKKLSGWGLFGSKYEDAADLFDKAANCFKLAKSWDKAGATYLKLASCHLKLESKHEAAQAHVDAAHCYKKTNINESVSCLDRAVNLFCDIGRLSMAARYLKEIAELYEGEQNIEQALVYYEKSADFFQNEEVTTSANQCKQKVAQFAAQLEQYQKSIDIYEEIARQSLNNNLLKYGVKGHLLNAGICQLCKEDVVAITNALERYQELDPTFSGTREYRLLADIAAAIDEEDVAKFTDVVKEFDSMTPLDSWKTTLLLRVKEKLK

T5: α-SNAPRhg1LC1-279 (α-SNAPRhg1LC lacking the final 10 C-terminal residues) (Glycine max (soybean))
T5 construct: both say that the final 10 C-terminal residues are missing; also called α-SNAPRhg1LC1-280
T5 chain: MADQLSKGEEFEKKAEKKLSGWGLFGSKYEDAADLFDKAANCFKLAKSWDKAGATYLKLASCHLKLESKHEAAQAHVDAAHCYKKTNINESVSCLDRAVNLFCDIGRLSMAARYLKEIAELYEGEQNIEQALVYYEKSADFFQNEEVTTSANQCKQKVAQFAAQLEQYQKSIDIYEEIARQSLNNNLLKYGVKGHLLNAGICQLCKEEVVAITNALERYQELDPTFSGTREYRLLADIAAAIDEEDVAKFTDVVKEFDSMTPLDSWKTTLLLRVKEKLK


What was measured:
[1] = biological target: T1, α-SNAPRhg1HC (high copy Rhg1 …); experiment: in vitro binding: α-SNAP adsorbed to tube, recombinant NSF added, bound NSF on silver-stained SDS-PAGE, ImageJ densitometry
From the text: (§1) All Rhg1-containing HG type test and NAM lines contained NSFRAN07, and α-SNAPRhg1HC and α-SNAPRhg1LC are polymorphic at C-terminal residues that bind and stimulate NSF. Therefore, the impact of NSFRAN07 polymorphisms on binding to both Rhg1 resistance-type α-SNAPs and α-SNAPRhg1WT was investigated. Recombinant NSFRAN07, NSFCh07 and Rhg1 α-SNAP proteins were produced for in vitro binding studies as previously described in (Barnard et al., 1997, J Cell Biol 139, 875-883; (Bayless et al. 2016, Proc. Natl. Acad. Sci. USA 113, E7375-E7382). NSFRAN07 and NSFCh07 binding was quantified using ImageJ densitometry across three independent experiments (FIG. 3D). NSFCh07 binding to α-SNAPRhg1HC and α-SNAPRhg1LC was reduced compared to α-SNAPRhg1WT (FIG. 3C). In contrast, NSFRAN07 binding to α-SNAPRhg1HC or α-SNAPRhg1LC was similar to α-SNAPRhg1WT binding, and was increased ˜30% relative to NSFCh07.
(§2) In vitro NSF binding assays were performed essentially as described in Barnard et. al. (1997) J Cell Biol 139(4): 875-883; and Bayless et al. (2016), Proc Natl Acad Sci USA 113(47): E7375-E7382; Briefly, 20 μg of each respective recombinant α-SNAP protein was added to the bottom of a 1.5-mL polypropylene tube and incubated at 25° C. for 20 min. Unbound α-SNAP proteins were then washed by adding α-SNAP wash buffer [25 mM Tris, pH 7.4, 50 mM KCl, 1 mM DTT, 0.4 mg/mL bovine serum albumin (BSA)]. After removal of wash buffer, 20 μg of recombinant NSF (1 μg/μL in NSF binding buffer), was then immediately added and incubated on ice for 10 min. The solution was then removed, and samples were immediately washed 2× with NBB to remove any unbound NSF. Samples were then boiled in 1×SDS loading buffer and separated on a 10% Bis-Tris SDS-PAGE, and silver-stained using the ProteoSilver Kit (Sigma-Aldrich), according to the manufacturer directions. The percentage of NSF bound by α-SNAP was then calculated using densitometric analysis with ImageJ.

[2] = biological target: T2, α-SNAPRhg1WT (wild-type α-SNAP encoded …); experiment: as above
From the text: as §1, §2

[3] = biological target: T3, α-SNAPRhg1LC (low copy Rhg1 …); experiment: as above
From the text: as §1, §2

[4] = biological target: T4, α-SNAPRhg1WT1-279 (WT α-SNAP lacking …); experiment: in vitro binding of recombinant NSF to tube-adsorbed α-SNAP, silver-stained SDS-PAGE
Procedure: To verify that NSFRAN07/α-SNAP binding is dependent upon NSF-binding patches at the α-SNAP C-terminus, NSFRAN07 binding to an otherwise WT α-SNAP lacking the final 10 C-terminal residues (α-SNAPRhg1WT₁₋₂₇₉) was determined. Binding of NSFCh07WT or NSFRAN07 binding with α-SNAP Rhg1WT₁₋₂₇₉ was disrupted, similar to the no α-SNAP binding controls (FIG. 10C).
as §2

[5] = biological target: T5, α-SNAPRhg1LC1-279 (α-SNAPRhg1LC lacking …); experiment: in vitro binding
[6] = biological target: T1, α-SNAPRhg1HC (high copy Rhg1 …); experiment: in vitro binding, densitometry of silver-stained SDS-PAGE across three independent experiments; reference NSFCh07 on the same α-SNAP
From the text: as §1
(§3) In vitro NSF binding assays were performed essentially as described in Barnard et. al. (1997) J Cell Biol 139(4): 875-883; and Bayless et al. (2016), Proc Natl Acad Sci USA 113(47): E7375-E7382; Briefly, 20 μg of each respective recombinant α-SNAP protein was added to the bottom of a 1.5-mL polypropylene tube and incubated at 25° C. for 20 min. […] The percentage of NSF bound by α-SNAP was then calculated using densitometric analysis with ImageJ.

[7] = biological target: T3, α-SNAPRhg1LC (low copy Rhg1 …); experiment: as above
From the text: as §1, §3

| binding result [1] | binding result [2] | binding result [3] | binding result [4] | binding result [5] | increase of binding relative to NSFCh07 [6] [%] | increase of binding relative to NSFCh07 [7] [%] | Binder |
| --- | --- | --- | --- | --- | --- | --- | --- |
| binds | binds | binds | no binding (tested: 20 µg NSF (1 µg/µL)) | no binding | – | – | NSFCh07 (wild-type NSF encoded by Glyma.07G195900, soybean reference genome Williams 82) (enzyme, Recombinant protein from E. coli; also called NSFCh07WT; NSF-WT) MASRFGLSSSSSSASSMRVTNTPASDLALTNLAFCSPSDLRNFAVPGHNNLYLAAVADSFVLSLSAHDTIGSGQIALNAVQRRCAKVSSGDSVQVSRFVPPEDFNLALLTLELEFVKKGSKSEQIDAVLLAKQLRKRFMNQVMTVGQKVLFEYHGNNYSFTVSNAAVEGQEKSNSLERGMISDDTYIVFETSRDSGIKIVNQREGATSNIFKQKEFNLQSLGIGGLSAEFADIFRRAFASRVFPPHVTSKLGIKHVKGMLLYGPPGTGKTLMARQIGKILNGKEPKIVNGPEVLSKFVGETEKNVRDLFADAEQDQRTRGDESDLHVIIFDEIDAICKSRGSTRDGTGVHDSIVNQLLTKIDGVESLNNVLLIGMTNRKDMLDEALLRPGRLEVQVEISLPDENGRLQILQIHTNKMKENSFLAADVNLQELAARTKNYSGAELEGVVKSAVSYALNRQLSLEDLTKPVEEENIKVTMDDFLNALHEVTSAFGASTDDLERCRLHGMVECGDRHKHIYQRAMLLVEQVKVSKGSPLVTCLLEGSRGSGKTALSATVGIDSDFPYVKIVSAESMIGLHESTKCAQIIKVFEDAYKSPLSVIILDDIERLLEYVPIGPRFSNLISQTLLVLLKRLPPKGKKLMVIGTTSELDFLESIGFCDTFSVTYHIPTLNTTDAKKVLEQLNVFTDEDIDSAAEALNDMPIRKLYMLIEMAAQGEHGGSAEAIFSGKEKISIAHFYDCLQDVVRL |
| – | binds | – | no binding (tested: 20 µg NSF (1 µg/µL)) | no binding | ~30 | ~30 | NSFRAN07 (Rhg1-associated NSF from chromosome 07, allele of Glyma.07G195900) (enzyme, Recombinant protein from E. coli, ORF cloned from Forrest (Rhg1LC) cDNA; Differs from NSFCh07 by R4Q, N21Y, S25N, insertion 116F and M181I; also called Glyma.07G195900 RAN07) MASQFGLSSSSSSASSMRVTYTPANDLALTNLAFCSPSDLRNFAVPGHNNLYLAAVADSFVLSLSAHDTIGSGQIALNAVQRRCAKVSSGDSVQVSRFVPPEDFNLALLTLELEFFVKKGSKSEQIDAVLLAKQLRKRFMNQVMTVGQKVLFEYHGNNYSFTVSNAAVEGQEKSNSLERGIISDDTYIVFETSRDSGIKIVNQREGATSNIFKQKEFNLQSLGIGGLSAEFADIFRRAFASRVFPPHVTSKLGIKHVKGMLLYGPPGTGKTLMARQIGKILNGKEPKIVNGPEVLSKFVGETEKNVRDLFADAEQDQRTRGDESDLHVIIFDEIDAICKSRGSTRDGTGVHDSIVNQLLTKIDGVESLNNVLLIGMTNRKDMLDEALLRPGRLEVQVEISLPDENGRLQILQIHTNKMKENSFLAADVNLQELAARTKNYSGAELEGVVKSAVSYALNRQLSLEDLTKPVEEENIKVTMDDFLNALHEVTSAFGASTDDLERCRLHGMVECGDRHKHIYQRAMLLVEQVKVSKGSPLVTCLLEGSRGSGKTALSATVGIDSDFPYVKIVSAESMIGLHESTKCAQIIKVFEDAYKSPLSVIILDDIERLLEYVPIGPRFSNLISQTLLVLLKRLPPKGKKLMVIGTTSELDFLESIGFCDTFSVTYHIPTLNTTDAKKVLEQLNVFTDEDIDSAAEALNDMPIRKLYMLIEMAAQGEHGGSAEAIFSGKEKISIAHFYDCLQDVVRL |
